Assay results as given in PMC7703624 (Proceedings of the National Academy of Sciences of the …, 2020).
Where a SMILES comes first, the peptide text is derived from it.

B1: wt2, Ac-…-NH2 (peptide)
peptide: Ac-SFEFPPPPTEDEL-NH2

Tests used:
[1] = target: T1, ENAH EVH1 (Homo sapiens, UniProt Q8N8S7); experiment: other fluorescence titration
Target sequence in this assay (Q8N8S7 whole entry): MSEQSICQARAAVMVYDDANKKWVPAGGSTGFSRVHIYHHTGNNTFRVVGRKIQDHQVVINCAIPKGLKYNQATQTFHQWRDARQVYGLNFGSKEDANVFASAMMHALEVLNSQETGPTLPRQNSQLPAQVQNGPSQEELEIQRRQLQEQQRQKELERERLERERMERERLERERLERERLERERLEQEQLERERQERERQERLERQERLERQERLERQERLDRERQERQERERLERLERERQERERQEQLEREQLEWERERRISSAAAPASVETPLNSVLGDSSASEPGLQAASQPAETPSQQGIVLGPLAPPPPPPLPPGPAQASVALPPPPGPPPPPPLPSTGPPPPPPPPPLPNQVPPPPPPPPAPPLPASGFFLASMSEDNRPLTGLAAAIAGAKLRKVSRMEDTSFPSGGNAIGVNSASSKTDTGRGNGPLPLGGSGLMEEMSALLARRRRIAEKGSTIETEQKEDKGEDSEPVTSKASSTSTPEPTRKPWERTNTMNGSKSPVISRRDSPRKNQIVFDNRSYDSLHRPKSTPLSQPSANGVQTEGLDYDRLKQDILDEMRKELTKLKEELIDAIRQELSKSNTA

[2] = target: Fyn SH3 (Homo sapiens, UniProt P06241); experiment: Pulldown of GST-Fyn SH3 from Jurkat cell lysate, displacement of ADAP; format: binding; conditions: Jurkat cell lysate 1 mg/ml, 50 µM active concentration
Sequence of Fyn SH3 (P06241 82-143 limits assumed): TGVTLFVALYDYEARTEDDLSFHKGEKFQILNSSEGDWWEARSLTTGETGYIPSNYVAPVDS

[3] = target: T1, ENAH EVH1; experiment: Fluorescence titration; format: binding

Row | Molecule | Kd [1] [nM] | further results
1 | 2ΔC, Ac-SFE[2-Cl-Phe][ProM-2][ProM-1]-OEt (peptide) | 2900 | 
2 | chimeric peptide 2, Ac-SFE[2-Cl-Phe][ProM-2][ProM-1]TEDEL-NH2 | 150 | 
3 | 2ΔN, Ac-[2-Cl-Phe][ProM-2][ProM-1]TEDEL-NH2 (peptide) | 330 | 
4 | Ac-RPLPPLP-NH2 [Ac–RPLPPLP −NH2] |  | displacement of ADAP from bead-bound GST-Fyn SH3 [2]: displaced ADAP
5 | CCOC(=O)[C@@H]1CCCN1C(=O)[C@@H]1CCCN1C(=O)[C@@H]1CCCN1C(=O)[C@@H]1CCCN1C(=O)[C@H](Cc1ccccc1)NC(C)=O [wt1, Ac–FPPPP–OEt] (Ac-FPPPP-OEt) |  | Kd [3]: 153000 nM
6 | B1 | 13000 | 
